Kd data for nine molecules are collected here from patent publication US20250084186A1 (published 2025).

Where a chain is given by its changes, count along the chain named.

For experiment [1], the target named is Human ENPP3. Briefly: Biacore; kinetics. A general note: In SPR one partner is held on a chip, and binding of the other changes the refractive index at the surface.
Experiment [2] concerns the target T1, cynomolgus ENPP3 (cynomolgus, UniProt A0A2K5TKP4 49-874).
T1 chain: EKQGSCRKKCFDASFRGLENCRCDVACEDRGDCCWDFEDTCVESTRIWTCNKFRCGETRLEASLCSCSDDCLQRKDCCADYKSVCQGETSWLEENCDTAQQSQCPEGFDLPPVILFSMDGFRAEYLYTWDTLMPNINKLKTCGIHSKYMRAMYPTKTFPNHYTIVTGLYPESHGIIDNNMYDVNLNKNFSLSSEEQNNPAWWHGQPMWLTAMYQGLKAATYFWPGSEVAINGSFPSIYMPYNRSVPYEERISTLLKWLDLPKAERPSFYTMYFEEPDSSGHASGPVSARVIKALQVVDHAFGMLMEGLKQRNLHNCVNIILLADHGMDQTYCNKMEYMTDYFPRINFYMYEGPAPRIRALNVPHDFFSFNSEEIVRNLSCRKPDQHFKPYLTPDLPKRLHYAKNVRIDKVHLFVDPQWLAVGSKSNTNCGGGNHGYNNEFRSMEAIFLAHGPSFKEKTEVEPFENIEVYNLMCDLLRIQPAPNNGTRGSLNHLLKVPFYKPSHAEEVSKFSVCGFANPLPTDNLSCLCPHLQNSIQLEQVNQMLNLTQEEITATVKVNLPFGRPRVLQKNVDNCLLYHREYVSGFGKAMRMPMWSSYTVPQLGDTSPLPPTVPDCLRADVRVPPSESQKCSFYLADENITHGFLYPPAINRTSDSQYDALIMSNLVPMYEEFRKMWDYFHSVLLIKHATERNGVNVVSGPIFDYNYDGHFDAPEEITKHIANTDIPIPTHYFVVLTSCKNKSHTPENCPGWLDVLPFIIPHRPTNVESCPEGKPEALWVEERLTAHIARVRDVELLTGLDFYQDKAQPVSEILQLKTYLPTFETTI
Briefly: Biacore; kinetics.

The target of experiment [3] is Human ENPP3. Briefly: Biacore; steady state.
Experiment [4] deals with T1, cynomolgus ENPP3. Briefly: Biacore; steady state.
Experiment [5] has as its target human CD28 (human, UniProt P10747 19-152). Briefly: -; scFv VHVL, 1+1 Fab-scFv-Fc.
Experiment [6] concerns the target ENPP3-A[ENPP3]_H1L1. Briefly: Biacore; steady state.
The target of experiment [7] is Ha16-1(3,5)5[ENPP3]_H1L1. Nature of the experiment: Biacore; steady state.
The target of experiment [8] is Ha16-1(3,5)18[ENPP3]_H1L1. Briefly: Biacore; steady state.
The target of experiment [9] is ENPP3-A[ENPP3]_H1L1. Briefly: Biacore; kinetics.
Experiment [10] addresses Ha16-1(3,5)5[ENPP3]_H1L1. Briefly: Biacore; kinetics.
The target of experiment [11] is Ha16-1(3,5)18[ENPP3]_H1L1. Nature of the experiment: Biacore; kinetics.

For orientation: Kd means the free concentration of one partner at which half of the binding sites on the other are occupied at equilibrium, for simple one-to-one binding. High values mean lower affinity, low ones higher affinity.

B1: AN1[ENPP3]_H1_L1.33 (antibody, V domains shown)
VH: EVQLVESGGGLVQPGGSLRLSCAASGFAFSNYGMSWVRQAPGKRLEWVSYISSGGGTTYYLDSVKGRFTISRDNAKNSLYLQMNSLRAEDTAVYYCARHRRVYYGYYFDYWGQGTLVTVSS
VL: DILLTQSPDFQSVTPKEKVTITCRASQSIGTSIHWYQQKPDQSPKLLIEYASESISGIPSRFSGSGSGTDFTLTINSLEAEDAATYYCQQSNSWPYTFGGGTKLEIK
Take B1: the Kd was found to be 74 nM in experiment [1], 1800 nM in experiment [2], 170 nM in experiment [3] and 1200 nM in experiment [4].

B2: AN1[ENPP3]_H1L1 (antibody, V domains shown)
VH: B1 VH
VL: B1 VL with E49K
As to B2, the dissociation constant (Kd) in [1] stood at 9 nM; in experiment [2] it was 460 nM; in experiment [3], 35 nM; in [4] it was 470 nM.

B3: H1.14_L1 (antibody, V domains shown)
VH: EVQLLESGGGLVQPGGSLRLSCAASGFTFSSYAMSWVRQAPGKGLEWVSTISGSGDSTYYADSVKGRFTISRDNSKNTLYLQMNSLRAEDTAVYYCAKSGPGLRQVGFDYWGQGTLVTVSS
VL: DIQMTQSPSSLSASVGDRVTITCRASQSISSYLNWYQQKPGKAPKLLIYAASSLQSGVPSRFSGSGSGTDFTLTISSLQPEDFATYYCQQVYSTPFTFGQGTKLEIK
As for B3, the dissociation constant Kd in experiment [5] was 230 nM.

B4: H1L1 (antibody, V domains shown)
VH: B3 VH
VL: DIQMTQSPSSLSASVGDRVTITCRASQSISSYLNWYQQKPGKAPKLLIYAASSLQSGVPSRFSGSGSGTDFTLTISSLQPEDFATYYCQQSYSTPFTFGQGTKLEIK
Turning to B4, the equilibrium dissociation constant (Kd) in experiment [5] was found to be 1000 nM.

B5: H1.1_L1.71 (antibody, V domains shown)
VH: B3 VH with A33Y, G53E
VL: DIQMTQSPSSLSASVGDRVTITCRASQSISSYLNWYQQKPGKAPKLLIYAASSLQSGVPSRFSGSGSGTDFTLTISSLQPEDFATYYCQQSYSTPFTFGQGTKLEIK
B5 returned an equilibrium dissociation constant (Kd) in [5] of 96 nM. Against the preceding molecule, the Kd is about 10-fold lower.

B6: H1_L1.71 (antibody, V domains shown)
VH: B3 VH with A33Y
VL: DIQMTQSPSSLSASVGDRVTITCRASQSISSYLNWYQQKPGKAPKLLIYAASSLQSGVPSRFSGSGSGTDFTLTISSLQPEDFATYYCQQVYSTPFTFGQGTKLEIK
In [5], B6 displayed an equilibrium dissociation constant (Kd) of 180 nM.

B7: H1.1_L1 (antibody, V domains shown)
VH: B3 VH with A33Y
VL: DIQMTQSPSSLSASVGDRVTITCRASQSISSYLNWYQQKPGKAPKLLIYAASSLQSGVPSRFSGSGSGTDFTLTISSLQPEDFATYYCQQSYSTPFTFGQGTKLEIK
In the case of B7, the affinity in experiment [5], expressed as Kd, was 600 nM.

B8: H1.14_L1.71 (antibody, V domains shown)
VH: B3 VH with A33Y, G53E
VL: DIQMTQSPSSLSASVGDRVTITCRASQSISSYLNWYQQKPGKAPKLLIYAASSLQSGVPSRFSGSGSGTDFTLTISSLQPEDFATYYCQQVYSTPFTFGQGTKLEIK
In experiment [5], B8 showed a Kd of 37 nM. Against the preceding molecule, the Kd is about 16-fold lower.

B9: Cyno ENPP3 (enzyme)
chain: T1 chain
Regarding B9, the Kd is 330 nM in experiment [6]; 70 nM in [7]; 140 nM in experiment [8]; 320 nM in [9]; 21 nM in experiment [10]; 110 nM in [11].
